Results on 37 substances are retold here after patent publication US11332512B2, “Peptides and combination of peptides for use in immunotherapy against various tumors” (Immatics Biotechnologies GmbH, priority 2015, dated 2022).

One test deals with HLA-A*02:01 (Homo sapiens, UniProt P04439, D140Y/D185E/D98H/E176V/E277Q/G131W/G231S/I119V/I121R/I166T/I218V/L300P/L318F/N151K/N90K/P208A/P217A/Q86G/Q94H/R138H/R169H/T345S). As to the kind of experiment: MHC binding assay: UV-ligand exchange with beta2m ELISA (peptide exchange yield). To be noted: binding to HLA-A*02:01, β2m ELISA. The source says:
Candidate peptides for T cell based therapies according to the present invention were further tested for their MHC binding capacity (affinity). The individual peptide-MHC complexes were produced by UV-ligand exchange, where a UV-sensitive peptide is cleaved upon UV-irradiation, and exchanged with the peptide of interest as analyzed. Only peptide candidates that can effectively bind and stabilize the peptide-receptive MHC molecules prevent dissociation of the MHC complexes. To determine the yield of the exchange reaction, an ELISA was performed based on the detection of the light chain (β2m) of stabilized MHC complexes. The assay was performed as generally described in Rodenko et al. (Rodenko et al., 2006).
96 well MAXISorp plates (NUNC) were coated over night with 2 ug/ml streptavidin in PBS at room temperature, washed 4× and blocked for 1 h at 37° C. in 2% BSA containing blocking buffer. Refolded HLA-A*02:01/MLA-001 monomers served as standards, covering the range of 15-500 ng/ml. Peptide-MHC monomers of the UV-exchange reaction were diluted 100 fold in blocking buffer. Samples were incubated for 1 h at 37° C., washed four times, incubated with 2 ug/ml HRP conjugated anti-β2m for 1 h at 37° C., washed again and detected with TMB solution that is stopped with […]. Absorption was measured at 450 nm. Candidate peptides that show a high exchange yield (preferably higher than 50%, most preferred higher than 75%) are generally preferred for a generation and production of antibodies or fragments thereof, and/or T cell receptors or fragments thereof, as they show sufficient avidity to the MHC molecules and prevent dissociation of the MHC complexes.
On the technique in general: ELISA stands for enzyme-linked immunosorbent assay.

The next test has as its system CD8+ T cells. As to the kind of experiment: In vitro immunogenicity: T-cell priming with aAPCs loaded with peptide/MHC and anti-CD28, pMHC multimer readout. The test is classed as cell-based, human. Conditions: for Wells positive [%]: percentage of positive wells among evaluable, HLA-A*02 restricted peptides. The source says: In order to obtain information regarding the immunogenicity of the TUMAPs of the present invention, the inventors performed investigations using an in vitro T-cell priming assay based on repeated stimulations of CD8+ T cells with artificial antigen presenting cells (aAPCs) loaded with peptide/MHC complexes and anti-CD28 antibody.
In order to perform in vitro stimulations by artificial antigen presenting cells loaded with peptide-MHC complex (pMHC) and anti-CD28 antibody, the inventors first isolated CD8+ T cells from fresh HLA-A*02 leukapheresis products via positive selection using CD8 microbeads (Miltenyi Biotec, Bergisch-Gladbach, Germany) of healthy donors obtained from the University clinics Mannheim, Germany, after informed consent. PBMCs and isolated CD8+ lymphocytes were incubated in T-cell medium (TCM) until use consisting of RPMI-Glutamax (Invitrogen, Karlsruhe, Germany) supplemented with 10% heat inactivated human AB serum (PAN-Biotech, Aidenbach, Germany), 100 U/ml Penicillin/100 μg/ml Streptomycin (Cambrex, Cologne, Germany), 1 mM sodium pyruvate (CC Pro, Oberdorla, Germany), 20 μg/ml Gentamycin (Cambrex). 2.5 ng/ml IL-7 (PromoCell, Heidelberg, Germany) and 10 U/ml IL-2 (Novartis Pharma, Nürnberg, Germany) were also added to the TCM at this step. Generation of pMHC/anti-CD28 coated beads, T-cell stimulations and readout was performed in a highly defined in vitro system using four different pMHC molecules per stimulation condition and 8 different pMHC molecules per readout condition.
The purified co-stimulatory mouse IgG2a anti human CD28 Ab 9.3 (Jung et al., 1987) was chemically biotinylated using Sulfo-N-hydroxysuccinimidobiotin as recommended by the manufacturer (Perbio, Bonn, Germany). Beads used were 5.6 μm diameter streptavidin coated polystyrene particles (Bangs Laboratories, Illinois, USA).
pMHC used for positive and negative control stimulations were A*0201/MLA-001 (peptide […] (SEQ ID NO. 289) from modified Melan-A/MART-1) and A*0201/DDX5-001 ([…] from DDX5, SEQ ID NO. 290), respectively.
800.000 beads/200 μl were coated in 96-well plates in the presence of 4×12.5 ng different biotin-pMHC, washed and 600 ng biotin anti-CD28 were added subsequently in a volume of 200 μl. Stimulations were initiated in 96-well plates by co-incubating 1×10^6 CD8+ T cells with 2×10^5 washed coated beads in 200 μl TCM supplemented with 5 ng/ml IL-12 (PromoCell) for 3 days at 37° C. Half of the medium was then exchanged by fresh TCM supplemented with 80 U/ml IL-2 and incubating was continued for 4 days at 37° C. This stimulation cycle was performed for a total of three times. For the pMHC multimer readout using 8 different pMHC molecules per condition, a two-dimensional combinatorial coding approach was used as previously described (Andersen et al., 2012) with minor modifications encompassing coupling to 5 different fluorochromes. Finally, multimeric analyses were performed by staining the cells with Live/dead near IR dye (Invitrogen, Karlsruhe, Germany), CD8-FITC antibody clone SK1 (BD, Heidelberg, Germany) and fluorescent pMHC multimers. For analysis, a BD LSRII SORP cytometer equipped with appropriate lasers and filters was used. Peptide specific cells were calculated as percentage of total CD8+ cells. Evaluation of multimeric analysis was done using the FlowJo software (Tree Star, Oregon, USA). In vitro priming of specific multimer+CD8+ lymphocytes was detected by comparing to negative control stimulations.

With “4 (VLFGELPAL; listed as Homo sapiens) [compound 4]”, the “Peptide exchange (MHC class I binding score, peptide exchange yield)” value (“Peptide exchange” for short) with HLA-A*02:01 is on record as “+++ (= ≥50% = +++)”. Also, the “Wells positive [%]” value in the test on CD8+ T cells is reported as “+ (<20% = +)”.
The like results for “9 (SLITGQDLLSV; listed as Homo sapiens) [compound 9]” were, in that order, “+++ (= ≥50% = +++)” and “+ (<20% = +)”.
The like results for “14 (YTFSGDVQL; listed as Homo sapiens) [compound 14]” were, in that order, “+++ (= ≥50% = +++)” and “+ (<20% = +)”.
“17 (GLLPSAESIKL; listed as Homo sapiens) [compound 17]”: the “Wells positive [%]” value with CD8+ T cells is “+ (<20% = +)”.
Turning to “27 (GLLGKVTSV; listed as Homo sapiens) [compound 27]”, the “Peptide exchange” value in the test with HLA-A*02:01 is “+++ (= ≥50% = +++)”. In addition, the “Wells positive [%]” value with CD8+ T cells is on record as “+ (<20% = +)”.
Consider “29 (KMISAIPTL; listed as Homo sapiens) [compound 29]”, for which the “Wells positive [%]” value in the test on CD8+ T cells was “+ (<20% = +)”.
For “34 (TLNTLDINL; listed as Homo sapiens) [compound 34]”, in the test with HLA-A*02:01, the “Peptide exchange” value was “+++ (= ≥50% = +++)”. In addition, in the test on CD8+ T cells, the “Wells positive [%]” value was “++++ (> = 70% = ++++)”.
For “35 (VIIKGLEEI; listed as Homo sapiens) [compound 35]”, in the test with CD8+ T cells, the “Wells positive [%]” value is given as “+ (<20% = +)”.
“39 (YLEDGFAYV; listed as Homo sapiens) [compound 39]”: in the test with HLA-A*02:01, the “Peptide exchange” value was “+++ (= ≥50% = +++)”. Also, the “Wells positive [%]” value in the test with CD8+ T cells is “++++ (> = 70% = ++++)”.
The like results for “50 (ILLSVLHQL; listed as Homo sapiens) [compound 50]” were, in that order, “+++ (= ≥50% = +++)” and “+ (<20% = +)”.
With “66 (AMFPDTIPRV; listed as Homo sapiens) [compound 66]”, the “Wells positive [%]” value with CD8+ T cells is on record as “+ (<20% = +)”.
Take “77 (ALYGNVQQV; listed as Homo sapiens) [compound 77]”: the “Peptide exchange” value with HLA-A*02:01 is listed as “+++ (= ≥50% = +++)”. Moreover, the “Wells positive [%]” value in the test with CD8+ T cells is on record as “+ (<20% = +)”.
The like results for “89 (SLAETIFIV; listed as Homo sapiens) [compound 89]” were, in that order, “+++ (= ≥50% = +++)” and “+ (<20% = +)”.
As for “97 (KLFEKSTGL; listed as Homo sapiens) [compound 97]”, the “Peptide exchange” value in the test with HLA-A*02:01 is “+++ (= ≥50% = +++)”. In addition, the “Wells positive [%]” value in the test on CD8+ T cells is “+ (<20% = +)”.
The like results for “101 (SLLEVNEASSV; listed as Homo sapiens) [compound 101]” were, in that order, “+++ (= ≥50% = +++)” and “+ (<20% = +)”.
The like results for “102 (GLYPVTLVGV; listed as Homo sapiens) [compound 102]” were, in that order, “+++ (= ≥50% = +++)” and “+ (<20% = +)”.
On to “121 (ALYVQAPTV; listed as Homo sapiens) [compound 121]”, for which the “Wells positive [%]” value in the test with CD8+ T cells is “+ (<20% = +)”.
Turning to “157 (ILQDGQFLV; listed as Homo sapiens) [compound 157]”, in the test with CD8+ T cells, the “Wells positive [%]” value was “+ (<20% = +)”.
On to “253 (KLLAVIHEL; listed as Homo sapiens) [compound 253]”, for which, in the test with HLA-A*02:01, the “Peptide exchange” value is given as “+++ (= ≥50% = +++)”.
Turning to “254 (ALGDKFLLRV; listed as Homo sapiens) [compound 254]”, the “Wells positive [%]” value with CD8+ T cells is listed as “+ (<20% = +)”.
For the substance “256 (FLNDIFERI; listed as Homo sapiens) [compound 256]”, the “Peptide exchange” value in the test with HLA-A*02:01 is reported as “+++ (= ≥50% = +++)”.
Same read-out and setting: under “261 (GLAALAVHL; listed as Homo sapiens) [compound 261]” stands “+++ (= ≥50% = +++)”.
As to “262 (LLLEAVWHL; listed as Homo sapiens) [compound 262]”, the “Peptide exchange” value with HLA-A*02:01 was “+++ (= ≥50% = +++)”.
On to “264 (TLHDQVHLL; listed as Homo sapiens) [compound 264]”, for which the “Wells positive [%]” value in the test with CD8+ T cells is “+ (<20% = +)”.
For the substance “265 (FLLDKPQDLSI; listed as Homo sapiens) [compound 265]”, the “Peptide exchange” value with HLA-A*02:01 is given as “+++ (= ≥50% = +++)”.
Same read-out and setting: under “270 (TLLTFFHEL; listed as Homo sapiens) [compound 270]” stands “+++ (= ≥50% = +++)”; under “271 (VLIEYNFSI; listed as Homo sapiens) [compound 271]”, “+++ (= ≥50% = +++)”; under “274 (TLYNPERTITV; listed as Homo sapiens) [compound 274]”, “+++ (= ≥50% = +++)”.
Same read-out and setting: under “276 (RMPTVLQCV; listed as Homo sapiens) [compound 276]” stands “+++ (= ≥50% = +++)”; under “277 (KLQEELNKV; listed as Homo sapiens) [compound 277]”, “+++ (= ≥50% = +++)”; under “278 (VLEDKVLSV; listed as Homo sapiens) [compound 278]”, “+++ (= ≥50% = +++)”.
On the same count and under the same terms, under “280 (HLWGHALFL; listed as Homo sapiens) [compound 280]” stands “+++ (= ≥50% = +++)”; under “283 (ALSELLQQV; listed as Homo sapiens) [compound 283]”, “+++ (= ≥50% = +++)”.
Regarding “285 (MLLDTVQKV; listed as Homo sapiens) [compound 285]”, the “Peptide exchange” value with HLA-A*02:01 is listed as “+++ (= ≥50% = +++)”.
Still for that read-out and setting: the value for “286 (FLTEMVHFI; listed as Homo sapiens) [compound 286]” was “+++ (= ≥50% = +++)”.
With “287 (KIQEILTQV; listed as Homo sapiens) [compound 287]”, the wells entry in the test with CD8+ T cells (percentage of positive wells, in vitro priming of CD8+ T cells of healthy HLA-A*02 donors) is given as “+ (<20% = +)”.
“288 (SLYKGLLSV; listed as Homo sapiens) [compound 288]”: the donors result in the test with CD8+ T cells (percentage of positive donors, in vitro priming of CD8+ T cells of healthy HLA-A*02 donors) was “++++ (> = 70% = ++++)”.
